Measured values published in the RNAGym collection of RNA variant scans (doi:10.7554/elife.90254).

B1: LINE1-mini (parent)
chain: GGCAGAGCUCAACACAGCGUGGCAAAGUGGCUGUGGCUAGACUGCC

Variants of: B1
Test: self-cleavage, relative activity (ratio to wild type); higher = more cleavage; in vitro, sequencing; the parent is a self-cleaving ribozyme

Variant	self-cleavage
GGCAGAGCUCAACACAGCGUGGCAAAGUGGCCGUGGCUAGACUGCA [U32C C46A]	0.16
GGCAGAGCUCAACACAGCGUGGCAAAGUGGCUGUAACUAGACUGCC [G35A G36A]	0.17
GGCACAGCUCAACACAGCGUGGCAAAGUGGCUGUGGUUAGACUGCC [G5C C37U]	0.09
GGCAGAGCUCAACACAGCGUGGCAAAGUUGCAGUGGCUAGACUGCC [G29U U32A]	0.34
GGCAGAGCUCAACACAGCGUGGCAAAGUGGCUGUGGCUAGAGUGGC [C42G C45G]	0.09
GGCAGAUCUCAACACAGCAUGGCAAAGUGGCUGUGGCUAGACUGCC [G7U G19A]	0.07
GGCAGAGCUCAACACAGCGUGGCAAAGUGGCUGUGGCUAGGAUGCC [A41G C42A]	0.12
GGCAGAGCUCAACACAUCGUGGCAAAGUGGCUGUGGUUAGACUGCC [G17U C37U]	0.05
GGCAGAGCUCAACACAGCGUGGCAAAAUGGCUGUGUCUAGACUGCC [G27A G36U]	0.08
GGCAGAGCUCAACACAGCGUGGCAUAGUGGCUGUGGCUUGACUGCC [A25U A39U]	0.86
GGCAGAGCUCAAGACAGCGUGGCAAAGUGGCUGUGGCAAGACUGCC [C13G U38A]	0.05
GGAAGAGCUCAACACAGUGUGGCAAAGUGGCUGUGGCUAGACUGCC [C3A C18U]	0.49
GGCAGAGCUCAACACAGCGUGGCAAAGUGGCUGUGCCUACACUGCC [G36C G40C]	0.08
GGCAGAGCUCAUCACAGCGUGGCAAAGUGGCUGUGGCUAGACUACC [A12U G44A]	0.22
GGCAGAGCGCAACACAGCGUGGCAAAGUGGCUGUGGCUCGACUGCC [U9G A39C]	0.05
GGCAGAGCUCGACACAGCGUGGGAAAGUGGCUGUGGCUAGACUGCC [A11G C23G]	0.03
GGCAGAGCUCAACACAGCGUGGCAAAUUGGCUGUGGCUAGACUACC [G27U G44A]	0.43
GGCAGAGCUCAACACAGCGUGGCAAAGUGGCAGUGGCUCGACUGCC [U32A A39C]	0.06
GGCAGAGCUCAACACACCGUGGGAAAGUGGCUGUGGCUAGACUGCC [G17C C23G]	1.22

Variant	self-cleavage
UGCAGAGCUCAACACAGUGUGGCAAAGUGGCUGUGGCUAGACUGCC [G1U C18U]	0.51
GGUAGAGCUCAACACAGCGUGGCAAAGUGGCUGUGUCUAGACUGCC [C3U G36U]	0.22
GGCAGAGGUCAACACAGCGUGGCAAAGUGGCUGUGGCUAGACUACC [C8G G44A]	0.04
GGCAUAGCUCAACACAGCGUGGCAUAGUGGCUGUGGCUAGACUGCC [G5U A25U]	0.08
GGCAAAGCUCAACACAGCGUGGCGAAGUGGCUGUGGCUAGACUGCC [G5A A24G]	0.23
GGCAGAGCACAACACAGCGUGGCAAAGUGACUGUGGCUAGACUGCC [U9A G30A]	0.18
GGCAGAGCGCAACACAGCGUGUCAAAGUGGCUGUGGCUAGACUGCC [U9G G22U]	0.19
GGCAGAGCUCACCACAGCGUGGCAAAGGGGCUGUGGCUAGACUGCC [A12C U28G]	0.02
GGCAGAGCUCAACGCAGCGUGGCAAAGUGGCUGUGGCUAGACUGUC [A14G C45U]	0.63
GGUAGAGCUCAACACAUCGUGGCAAAGUGGCUGUGGCUAGACUGCC [C3U G17U]	0.12
GGCAGAGCUCAACACAGCGUGCCAAAGUGGCUGUGGCUAGACUCCC [G22C G44C]	0.41
GUCAGAGCUCAACACAGCGUGGCAAAGUGGCUGUGGCUAGACUUCC [G2U G44U]	0.06
GGCAGAGCUCAACACAGCGUGGCAAAGUGGCUGUUGCUAUACUGCC [G35U G40U]	0.12
GGCAGAGCUCAACACAGCGUGACAAAGUGGCUGUGGAUAGACUGCC [G22A C37A]	0.04
GGCAGAGCUCAACACAGCGUGGCCAAGUGGCUGUGGCUAGACUGCU [A24C C46U]	0.64
GGCAGAGCUCAACCCAGCGUGGCAAAGUGGCUGUAGCUAGACUGCC [A14C G35A]	0.09
GGCAGAGCUCAACACAGCCUGGCAAAGUGGCUGUGGCGAGACUGCC [G19C U38G]	0.01
GGCAGAGCUCAACACAGCGAGGCAAAGUGGCGGUGGCUAGACUGCC [U20A U32G]	0.08
GGCAUAGCUCAACACAGCGAGGCAAAGUGGCUGUGGCUAGACUGCC [G5U U20A]	0.06

Variant	self-cleavage
GCCAGAGCUCAACACAGCGUGGCAAAGUGGCUGUGGCUAGACUGCA [G2C C46A]	0.09
GGCAGAGCACAACACAGCGUGGCAAAGUGGCUGUCGCUAGACUGCC [U9A G35C]	0.08
GGCAGAGCUCAACACAGCGUGGCAAAGUGGCUGUGGCUGGCCUGCC [A39G A41C]	0.03
GGCAGAGCUCAACACAGCGUGGCAAAGUGGAUGUGGCUAGAUUGCC [C31A C42U]	0.05
GGCAGAGCUCAACACAGCGUCGCAAAGUGGCUGUUGCUAGACUGCC [G21C G35U]	0.16
GGCAGUGCUCAACACAGCGUGGUAAAGUGGCUGUGGCUAGACUGCC [A6U C23U]	0.89
GGCAGAGCUCAACACAACGUGACAAAGUGGCUGUGGCUAGACUGCC [G17A G22A]	0.32
GGCAGAGCUCAACACAGCUUGGCGAAGUGGCUGUGGCUAGACUGCC [G19U A24G]	0.45
GGCAGAGCUCAACACAGCGUGGCAAACUGGCUUUGGCUAGACUGCC [G27C G33U]	0.12
GGGAGAGCUCAACACAGCGUGGCAAAGUGGCUGUGGCUAGACUGCA [C3G C46A]	0.36
GGCAGAGCUCAACACAGCGUGGCAAAUUGCCUGUGGCUAGACUGCC [G27U G30C]	1.79
GGAAGAGCUCAACACAGCGUGGCAAAGUGGCUGUGGAUAGACUGCC [C3A C37A]	0.35
GGAAGAGCUCAACACAGCGUGGCAAAGUGGCUGUGGCUAGGCUGCC [C3A A41G]	0.22
GGCAGAGCUCAACACAGCGUGGCAAAGUGGCUGUGGCUAGACAGCU [U43A C46U]	0.13
GGCAGAGCUCAACACAGCGUGGCAAAGAGGCUGUGCCUAGACUGCC [U28A G36C]	0.06
GGCAGAGCUCAACACAGCGUUGCUAAGUGGCUGUGGCUAGACUGCC [G21U A24U]	1.01
GGCAGAGCUCAACACACCGUGGCAAACUGGCUGUGGCUAGACUGCC [G17C G27C]	0.29
GGCAGAGCUCAACACAGGGGGGCAAAGUGGCUGUGGCUAGACUGCC [C18G U20G]	0.41
